The values below are quoted from earlier work in patent publication US20050074809A1, “System and method for systematic prediction of ligand/receptor activity” (priority 2001, published 2005).

The target of series [1] is HLA-DRB1*0101 molecule (Homo sapiens, UniProt P01903+P01911, A100R/D57E/F55L/F60I/F76Y/I96L/L162R/M171V/P40L/Q125E/R42F/V115G/Y59C). The note with it: result in words; reported binding data.
Series [2] deals with HLA-A*0201 molecule (Homo sapiens, UniProt P04439, D140Y/D185E/D98H/E176V/E277Q/G131W/G231S/I119V/I121R/I166T/I218V/L300P/L318F/N151K/N90K/P208A/P217A/Q86G/Q94H/R138H/R169H/T345S). The note with it: result in words; Kawakami and Rosenberg 1996.

As for FAGKNTDLE, the “binding to HLA-DR1(0101) (HLA-DRB1*0101)” value in series [1] is “does not bind”.

With “PKPPKPVSKMRMATPLLMQALPMG [Peptide of class II invariant chain (SwissProt Acc. P04233)]”, the “binding to HLA-DR1(0101) (HLA-DRB1*0101)” value in series [1] is reported as “binds”.

Consider “PLWGPRALV [Peptide of the mage-3 antigen (SWISSPROT:MAG3_HUMAN)]”, for which the “binding to HLA-A*0201” value in series [2] was “binds”.
